Measurements reported in the nanobody polyreactivity screen of Harvey et al. (2022).

Test: yeast display, Sf9 membrane polyspecificity reagent, FACS + sequencing; frameworks hold sequencing errors
How it was run: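 In a synthetic yeast display library (Saccharomyces cerevisiae BJ5465), nanobody expression was induced with galactose for 36–48 hours. FACS gates were set low and high (top ~1%) using anti-HA fluorescence for expression and streptavidin fluorescence for binding of the Sf9 membrane reagent. Each polyreactivity label is drawn from the gate of origin.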

Sequence | polyreactivity (PSR sort gate)
QVQLVESGGGLVQAGGSLRLSCAASGFTFKYNAMGWYRQAPGKERELVAAISSSGSTNYADSVKGRFTISRDNAKNTVYLQMNSLKPEDTAVYYCAARWRSVLAAGTRPVSFDYWGQGTQVTVSS | low polyreactivity
QVQLVESGGGLVQAGGSLRLSCAASGFTFKYNAMGWYRQAPGKERELVAAITASGGSTRYADSVKARFTISRDNAKNTVYLQMNSLKPEDTAVNYCAARKWFPRYSASPRSHGPYDYWGLGTQVTVSS | high polyreactivity
QVQLVESGGGLVQAGGSLRLSCAASGFTFKYNAMGWYRQAPGKERELVASISSGSTNYADSVKGRFTISRDNAKNTVYLQMNSLKPEDTAVYYCAASVSRGKRFRYGYVFKLDYWGQGTQVTVSS | low polyreactivity
QVQLVESGGGLVQAGGSLRLSCAASGFTFKYYAMGWYRQAPGKERELVAAISSRGGSTYYADSVKGRFTISRDKAKNTVYLQMNSLKPEDTAVYYCAAYYRTGSIWYAIFSDDYWGQGTQVTVSS | high polyreactivity
QVQLVESGGGLVQAGGSLRLSCAASGFTFKYYAMGWYRQAPGKERELVAAITKRGGSTYYADSVKGRFTISRDNAKNTVYLQMNSLKPEDTEVYYCAAYYKSTYVPGDYWGQGTQVTVSS | high polyreactivity
QVQLVESGGGLVQAGGSLRLSCAASGFTFKYYAMGWYRQAPGKERELVARISWSGGSTYYADSVKGRFTISRDNAKNTFFLQMNSLKPEDTAVYYCNTDFGYGFDYWGQGTQVSVSS | high polyreactivity
QVQLVESGGGLVQAGGSLRLSCAASGFTFKYYAMGWYRQAPGKERELVATITSGGRTNYADSVKGRFTISRDNAKNTVYLQMNSLKPEDTAVYYCATPYSAYWQNERDYWGQGTQVTVSS | high polyreactivity
QVQLVESGGGLVQAGGSLRLSCAASGFTFKYYDMGWYRQAPGKERELVAAIDTSGGNTYYADSVKGRFTISRDYAKNTVYLQMNSLKPEDTAVYYCAATVPYYHDDYWGQGTQVTVSS | low polyreactivity
QVQLVESGGGLVQAGGSLRLSCAASGFTFKYYVMGWYRQAPGKERELVASISKRGGSTRYADSVKGRFTISLDNAKNTVYLQMNSLKPEDTAVYYCAAEYWYYWEYEYWGQGTQVTVSS | high polyreactivity
QVQLVESGGGLVQAGGSLRLSCAASGFTFLAYPMGRYRQAPGKERELVAAISKSGGSTYYADSVKGRFTISRDNAKITVYLQMNSLKPDDTAVYYSNAGRRIKFYGSYDYWGQGSQVTVSS | high polyreactivity
QVQLVESGGGLVQAGGSLRLSCAASGFTFLDYALGWYIQAPGKERELVASISSSGGSTRYADSVKGRFTISRDNAKNTVYLQMNSLKPEDTAVYYCNAQIAEVPNDYWGQGPQVTVSS | low polyreactivity
QVQLVESGGGLVQAGGSLRLSCAASGFTFLIYAMGWYRQAPGKERELVAAITWRGSGTYYADSVKGRFTLSRDNAKNTVYLQMNSLKPEDTAVYYCAARTARRTFDYWGQGTQVTVSS | low polyreactivity
QVQLVESGGGLVQAGGSLRLSCAASGFTFLPAYAMGWYRQAPGKERELVAAITRGGSTYYADSVKGRFTISRDNAKNTVYLQMNSLKPEDTAVYYCNADQKFGFYRSVGDDYWGQGTQVTVSS | low polyreactivity
QVQLVESGGGLVQAGGSLRLSCAASGFTFLRNAMGWYRQAPGKERELVATISTSGGSTYYADSVKGRFTISRDNAKITVYLQMNSLKPEDTAVYYCAKRYRTRDSGYDYWGQGTQVTVSS | high polyreactivity
QVQLVESGGGLVQAGGSLRLSCAASGFTFLRYAMGWYRQAPGKESELVAAISTSGGSTSYADSVKGRFTISRDNAKNTVYLQMNSLKPEDTAVYYCNAVLYKVSISEYDYWGQGTQVTVSS | high polyreactivity
QVQLVESGGGLVQAGGSLRLSCAASGFTFLSYTMGWYRQEPGKERELVASITASGTRTYYADSVKGRFTISRDNAKNTVYLQMNSLKPDDTAVYYCAARRSGSGSHDYGYWGQGTQVTVSS | low polyreactivity

Sequence | polyreactivity (PSR sort gate)
QVQLVESGGGLVQAGGSLRLSCAASGFTFNAMGWYRQAPGKERELVARIDSDDTTNYADSVKGRFTISRDNAKNTVYLQMNSLKPEDTAVYYCNKDYAWLSYQHYDYWGQGTQVTVSS | low polyreactivity
QVQLVESGGGLVQAGGSLRLSCAASGFTFNDYAMGWYRQAPGKERELVAAIDWSGGRTYYADSVKGRFTISRDNAKNTVYVQMNSLKPEDTAVYYCAAVLYSRLYWYRLDYWGQGTQVTVSS | low polyreactivity
QVQLVESGGGLVQAGGSLRLSCAASGFTFNEYAMGWYRQAPGKERELVAAITWGGASTYYADSVKGRFTISRDNAKNTVYLQMNSLKPEDTAVYYCVFVYVYDYYYWGQGTQVTVSS | high polyreactivity
QVQLVESGGGLVQAGGSLRLSCAASGFTFNFNAMGCYIQAPGKERELLAAIRYRGGSTNYADSVKGSFTISRDNAKNTVYVMMNSLKPEDTAVYYCNVYYYRTYSHVLPGYEYWGQGTQVPVSS | high polyreactivity
QVQLVESGGGLVQAGGSLRLSCAASGFTFNNYAMGWYRQAPGKERELVAAISSGAGTYYADSVKGRFTISRDNAKNTVYLQMNSLKPEDTAVYYCNASLKYQGRTRITYRDDYWGQGTQVTVSS | low polyreactivity
QVQLVESGGGLVQAGGSLRLSCAASGFTFNPYAMGWYRQAPGKERELVAAITSGGSTNYADSVKGRFTISRDNAKNTVYLQMNSLKPEDTAVYYCAADSRGYGDDSWGQGTKVTVSS | low polyreactivity
QVQLVESGGGLVQAGGSLRLSCAASGFTFNQYAMGWYRQAPGKERELVAAITGSGGSTYYADSVKGRFTISRDNAKNTVYLQMNSLKPEDTAVYYCNRDRFSRFYWGQGTQVTVSS | high polyreactivity
QVQLVESGGGLVQAGGSLRLSCAASGFTFNRYAMGWYRQAPGKERELVAAISARGGITYYADSVKGRFTISRDNAKNTVYLQMNSLKPEDTAVYYCNKRYSSWSGEHDYWGQGTQVTVSS | high polyreactivity
QVQLVESGGGLVQAGGSLRLSCAASGFTFNRYTMGWYRQAPGKERELVASISVRGSRTYYADSVKGRFTISRDNAKNTVYLQMNSLKPEDTAVYYCNAKTYVFYRLRSYYYWGQGTQVTVSS | high polyreactivity
QVQLVESGGGLVQAGGSLRLSCAASGFTFNVNAMGWYRQAPGKERELVATITWSDGSTRYADSVKGRFTISRDNAKNTVYLQMNSLKPEDTAVYYCAAESSECTSGDYDYWGQCTQVTVSS | low polyreactivity
QVQLVESGGGLVQAGGSLRLSCAASGFTFNYYAMGGYRPAPGKERELVAAISTGGSTYYADSVKGRFTFSRDNAKNTVYLQMISLKPEDTAVYYCNAKPRYRKADRLDYWGQGTQVTVSS | high polyreactivity
QVQLVESGGGLVQAGGSLRLSCAASGFTFPDYAMGWYRQAPGKEREMVAAISSDGSTYYADSVKGRFTISRDNAKNTVYLQMNSLKPEDTAVYYCAAYVVWLYGYDYWGQGTLVTVSS | low polyreactivity
QVQLVESGGGLVQAGGSLRLSCAASGFTFPENAMGWYRQAPGKERELVAAISYRGASTFYADSVKGRFTISRDNAKNTVYLQMNSLKPEDTAVYYCATDPRIRYQGNPYDYWGQGTKVTVSS | high polyreactivity
QVQLVESGGGLVQAGGSLRLSCAASGFTFPFYAMGWYRQAPGKERELVAPISRSGTRTYYADSVKGRFTISRDNAKNTVYLQMNSLKPEDTAVYYCAAAYHNGYLSEGYWEHYYWGQGTQVTVSS | high polyreactivity
QVQLVESGGGLVQAGGSLRLSCAASGFTFPGNTMGWYRQAPGKERELVAVISRSGGRSYYADSVKGRFTISRDNAKNTVYLQMNSLKPEDTAVYYCAADTSVRFDYWGQGTQVTVSS | high polyreactivity
QVQLVESGGGLVQAGGSLRLSCAASGFTFPHYAMGWYRQAPGKERELVARIRWGGGSTYYADSVKGRFTISRDNAKNTVYLQMNSLKPEDTAVYYCARTTSYLTSTRRYYYWGQGTQVTVSS | high polyreactivity
